According to publication PMC3105044, “The Membrane Bound LRR Lipoprotein Slr, and the Cell Wall-Anchored M1 Protein from Streptococcus pyogenes Both Interact with Type I Collagen” (PLoS ONE, 2011):

Columns and labels:
[1] = target: Collagen type I (UniProt P02452); assay: SPR; collagen I immobilised by amine coupling on a CM3 chip (about 1500 RU); Slr or M1 diluted 2-fold from 500 nM, 35 µl/min, in 10 mM HEPES, 150 mM NaCl, 0.005% Surfactant P20, pH 7.5; BIAcore 2000; 1:1 Langmuir fit
[2] = target: T1, Collagen type I (UniProt P02452 162-1218; P08123 80-1119); assay: as above; conditions: both partners purified
T1 construct: collagen I alpha1 chain (printed as the α1 chain, 134 kDa); collagen I alpha2 chain (printed as the α2 chain, 130 kDa); Used non-denatured, denatured with 4 M guanidine hydrochloride, monomeric and fibrillar; also called collagen I; monomeric collagen I; source: bought: Sigma
T1 sequence (P02452 162-1218, chain 1 of 2): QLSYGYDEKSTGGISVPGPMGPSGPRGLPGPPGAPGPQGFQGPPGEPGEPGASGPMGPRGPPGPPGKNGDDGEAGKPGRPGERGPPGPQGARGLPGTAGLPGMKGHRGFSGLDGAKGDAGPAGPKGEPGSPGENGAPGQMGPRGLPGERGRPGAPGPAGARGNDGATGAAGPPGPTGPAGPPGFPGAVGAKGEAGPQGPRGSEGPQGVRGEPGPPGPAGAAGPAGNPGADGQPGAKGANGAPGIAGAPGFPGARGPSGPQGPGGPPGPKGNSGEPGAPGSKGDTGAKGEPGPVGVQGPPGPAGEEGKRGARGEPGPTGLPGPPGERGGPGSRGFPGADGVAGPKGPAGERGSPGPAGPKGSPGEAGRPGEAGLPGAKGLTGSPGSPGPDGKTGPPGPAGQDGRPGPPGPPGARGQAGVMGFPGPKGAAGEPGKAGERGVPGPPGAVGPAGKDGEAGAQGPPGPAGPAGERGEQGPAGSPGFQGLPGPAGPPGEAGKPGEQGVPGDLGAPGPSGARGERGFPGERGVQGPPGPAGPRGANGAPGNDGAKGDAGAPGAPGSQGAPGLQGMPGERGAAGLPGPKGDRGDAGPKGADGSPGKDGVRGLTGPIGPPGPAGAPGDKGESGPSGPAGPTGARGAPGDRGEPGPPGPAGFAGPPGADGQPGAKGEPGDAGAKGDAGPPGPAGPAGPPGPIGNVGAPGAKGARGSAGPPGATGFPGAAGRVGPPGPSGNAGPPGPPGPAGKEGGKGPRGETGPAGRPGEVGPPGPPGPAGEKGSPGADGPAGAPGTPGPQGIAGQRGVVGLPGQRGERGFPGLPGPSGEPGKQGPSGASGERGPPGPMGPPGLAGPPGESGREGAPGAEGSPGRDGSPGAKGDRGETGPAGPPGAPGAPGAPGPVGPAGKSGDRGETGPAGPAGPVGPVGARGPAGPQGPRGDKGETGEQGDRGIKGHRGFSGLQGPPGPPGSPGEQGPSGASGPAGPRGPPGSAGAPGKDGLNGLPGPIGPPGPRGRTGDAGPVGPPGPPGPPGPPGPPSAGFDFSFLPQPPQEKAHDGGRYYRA
T1 sequence (P08123 80-1119, chain 2 of 2): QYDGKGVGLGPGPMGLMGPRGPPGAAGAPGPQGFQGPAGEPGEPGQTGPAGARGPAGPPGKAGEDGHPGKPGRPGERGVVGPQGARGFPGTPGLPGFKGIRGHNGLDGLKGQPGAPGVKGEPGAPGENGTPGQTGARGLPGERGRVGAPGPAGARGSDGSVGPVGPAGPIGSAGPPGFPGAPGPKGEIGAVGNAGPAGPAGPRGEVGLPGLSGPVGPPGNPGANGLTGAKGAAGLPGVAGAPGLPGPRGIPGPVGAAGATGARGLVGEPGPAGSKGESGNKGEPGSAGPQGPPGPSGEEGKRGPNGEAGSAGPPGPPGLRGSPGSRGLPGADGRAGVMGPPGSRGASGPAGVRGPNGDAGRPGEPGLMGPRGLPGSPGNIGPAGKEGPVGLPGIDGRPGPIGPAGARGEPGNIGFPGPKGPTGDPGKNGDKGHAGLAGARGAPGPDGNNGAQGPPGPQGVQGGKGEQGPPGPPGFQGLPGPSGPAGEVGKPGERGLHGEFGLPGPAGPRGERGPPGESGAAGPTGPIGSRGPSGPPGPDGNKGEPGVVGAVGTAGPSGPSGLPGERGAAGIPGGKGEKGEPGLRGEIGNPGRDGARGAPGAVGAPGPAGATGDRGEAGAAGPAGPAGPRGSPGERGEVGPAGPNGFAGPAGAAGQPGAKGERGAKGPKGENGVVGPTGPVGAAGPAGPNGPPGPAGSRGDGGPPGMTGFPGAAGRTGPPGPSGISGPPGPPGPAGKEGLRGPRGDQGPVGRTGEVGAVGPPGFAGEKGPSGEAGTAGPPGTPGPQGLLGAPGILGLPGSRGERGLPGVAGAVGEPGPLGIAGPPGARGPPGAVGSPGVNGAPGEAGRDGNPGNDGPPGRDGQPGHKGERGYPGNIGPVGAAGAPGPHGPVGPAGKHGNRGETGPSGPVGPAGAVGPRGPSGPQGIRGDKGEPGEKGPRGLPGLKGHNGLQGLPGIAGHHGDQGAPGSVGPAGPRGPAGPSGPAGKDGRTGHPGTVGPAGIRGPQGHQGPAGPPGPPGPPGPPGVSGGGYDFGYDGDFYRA

Collagen type I (UniProt P02452), sequence (P02452 162-1218, chain 1 of 2): as the sequence (P02452 162-1218, chain 1 of 2) above
Collagen type I (UniProt P02452), sequence (P08123 80-1119, chain 2 of 2, further chain): as the sequence (P08123 80-1119, chain 2 of 2) above

Molecule	Kd [1] [µM]	Kd [2] [µM]
streptococcal leucine rich (Slr) protein, recombinant, GST tag removed (from UniProt F8THZ1 1-792) (natural protein)	0.012	
M1 protein from Streptococcus pyogenes, purified from culture supernatants of strain MC25 (natural protein) NGDGNPREVIEDLAANNPAIQNIRLRYENKDLKARLENAMEVAGRDFKRAEELEKAKQALEDQRKDLETKLKELQQDYDLAKESTSWDRQRLEKELEEKKEALELAIDQASRDYHRATALEKELEEKKKALELAIDQASQDYNRANVLEKELETITREQEINRNLLGNAKLELDQLSSEKEQLTIEKAKLEEEKQISDASRQSLRRDLDASREAKKQVEKDLANLTAELDKVKEDKQISDASRQGLRRDLDASREAKKQVEKDLANLTAELDKVKEEKQISDASRQGLRRDLDASREAKKQVEKALEEANSKLAALEKLNKELEESKKLTEKEKAELQAKLEAEAKALKEQLAKQAEELAKLRAGKASDSQTPDTKPGNKAVPGKGQAPQAGTKPNQNKAPMKETKRQLPST		0.054
